Assay [1] addresses taxol-stabilized bovine brain microtubules (bovine) (UniProt Q6B856). As to the kind of experiment: co-sedimentation.
Assay [2] has the same target. As to the kind of experiment: co-sedimentation. The source holds these as a separate data set.

Where two headings read alike, the source gives them in different places. Where only a bound is given, the exact number is not on record here.

B1: Stu2p C557 (domain or fragment)
chain: MSGEEEVDYTTLPLEERLTYKLWKARLEAYKELNQLFRNSVGDISRDDNIQIYWRDPTLFAQYITDSNVVAQEQAIVALNSLIDAFASSSLKNAHNITLISTWTPLLVEKGLTSSRATTKTQSMSCILSLCGLDTSITQSVELVIPFFEKKLPKLIAAAANCVYELMAAFGLTNVNVQTFLPELLKHVPQLAGHGDRNVRSQTMNLIVEIYKVTGNNSDLLEEILFKKLKPIQVKDLHKLFAKVGDEPSSSKMLFEWEKRELEKKRSQEEEARKRKSILSNDEGEYQIDKDGDTLMGMETDMPPSKQQSGVQIDTFSMLPEETILDKLPKDFQERITSSKWKDRVEALEEFWDSVLSQTKKLKSTSQNYSNLLGIYGHIIQKDANIQAVALAAQSVELICDKLKTPGFSKDYVSLVFTPLLDRTKEKKPSVIEAIRKALLTICKYYDPLASSGRNEDMLKDILEHMKHKTPQIRMECTQLFNASMKEEKDGYSTLQRYLKDEVVPIVIQIVNDTQPAIRTIGFESFAILIKIFGMNTFVKTLEHLDNLKRKKIEETV
modifications: [35S]methionine label
In assay [1], B1 displayed a fold higher Kd than full length Stu2p of 30 fold.

B2: Stu2p N558 (domain or fragment)
chain: KTLPNFSIASGSTHSTIETNKQTGPMENKFLLKKSSVLPSKRVASSPLRNDNKSKVNPIGSVASASKPSMVAANNKSRVLLTSKSLATPKNVVANSTDKNEKLIEEYKYRLQKLQNDEMIWTKERQSLLEKMNNTENYKIEMIKENEMLREQLKEAQSKLNEKNIQLRSKEIDVNKLSDRVLSLENELRNMEIELDRNKKRNDTNLQSMGTISSYSIPSSTVSSNYGVKSLSSALPFKEEEDVRRKEDVNYERRSSESIGDLPHRVNSLNIRPYRKNGTGVSSVSDDLDIDFNDSFASEESYKRAAAVTSTLKARIEKMKAKSRREGTTRT
modifications: [35S]methionine label
B2: the fold higher Kd than full length Stu2p in assay [1] turned out to be 1.4 fold.

B3: Stu2p C657 (domain or fragment)
chain: MSGEEEVDYTTLPLEERLTYKLWKARLEAYKELNQLFRNSVGDISRDDNIQIYWRDPTLFAQYITDSNVVAQEQAIVALNSLIDAFASSSLKNAHNITLISTWTPLLVEKGLTSSRATTKTQSMSCILSLCGLDTSITQSVELVIPFFEKKLPKLIAAAANCVYELMAAFGLTNVNVQTFLPELLKHVPQLAGHGDRNVRSQTMNLIVEIYKVTGNNSDLLEEILFKKLKPIQVKDLHKLFAKVGDEPSSSKMLFEWEKRELEKKRSQEEEARKRKSILSNDEGEYQIDKDGDTLMGMETDMPPSKQQSGVQIDTFSMLPEETILDKLPKDFQERITSSKWKDRVEALEEFWDSVLSQTKKLKSTSQNYSNLLGIYGHIIQKDANIQAVALAAQSVELICDKLKTPGFSKDYVSLVFTPLLDRTKEKKPSVIEAIRKALLTICKYYDPLASSGRNEDMLKDILEHMKHKTPQIRMECTQLFNASMKEEKDGYSTLQRYLKDEVVPIVIQIVNDTQPAIRTIGFESFAILIKIFGMNTFVKTLEHLDNLKRKKIEETVKTLPNFSIASGSTHSTIETNKQTGPMENKFLLKKSSVLPSKRVASSPLRNDNKSKVNPIGSVASASKPSMVAANNKSRVLLTSKSLATPKNVVANSTDKN
modifications: [35S]methionine label
For the molecule B3, in assay [1], the fold higher Kd than full length Stu2p stood at 1.6 fold.

B4: Stu2p N658 (domain or fragment)
chain: EKLIEEYKYRLQKLQNDEMIWTKERQSLLEKMNNTENYKIEMIKENEMLREQLKEAQSKLNEKNIQLRSKEIDVNKLSDRVLSLENELRNMEIELDRNKKRNDTNLQSMGTISSYSIPSSTVSSNYGVKSLSSALPFKEEEDVRRKEDVNYERRSSESIGDLPHRVNSLNIRPYRKNGTGVSSVSDDLDIDFNDSFASEESYKRAAAVTSTLKARIEKMKAKSRREGTTRT
modifications: [35S]methionine label
B4: in assay [1], the fold higher Kd than full length Stu2p is greater than 50 fold.

B5: Stu2p (natural protein)
chain: MSGEEEVDYTTLPLEERLTYKLWKARLEAYKELNQLFRNSVGDISRDDNIQIYWRDPTLFAQYITDSNVVAQEQAIVALNSLIDAFASSSLKNAHNITLISTWTPLLVEKGLTSSRATTKTQSMSCILSLCGLDTSITQSVELVIPFFEKKLPKLIAAAANCVYELMAAFGLTNVNVQTFLPELLKHVPQLAGHGDRNVRSQTMNLIVEIYKVTGNNSDLLEEILFKKLKPIQVKDLHKLFAKVGDEPSSSKMLFEWEKRELEKKRSQEEEARKRKSILSNDEGEYQIDKDGDTLMGMETDMPPSKQQSGVQIDTFSMLPEETILDKLPKDFQERITSSKWKDRVEALEEFWDSVLSQTKKLKSTSQNYSNLLGIYGHIIQKDANIQAVALAAQSVELICDKLKTPGFSKDYVSLVFTPLLDRTKEKKPSVIEAIRKALLTICKYYDPLASSGRNEDMLKDILEHMKHKTPQIRMECTQLFNASMKEEKDGYSTLQRYLKDEVVPIVIQIVNDTQPAIRTIGFESFAILIKIFGMNTFVKTLEHLDNLKRKKIEETVKTLPNFSIASGSTHSTIETNKQTGPMENKFLLKKSSVLPSKRVASSPLRNDNKSKVNPIGSVASASKPSMVAANNKSRVLLTSKSLATPKNVVANSTDKNEKLIEEYKYRLQKLQNDEMIWTKERQSLLEKMNNTENYKIEMIKENEMLREQLKEAQSKLNEKNIQLRSKEIDVNKLSDRVLSLENELRNMEIELDRNKKRNDTNLQSMGTISSYSIPSSTVSSNYGVKSLSSALPFKEEEDVRRKEDVNYERRSSESIGDLPHRVNSLNIRPYRKNGTGVSSVSDDLDIDFNDSFASEESYKRAAAVTSTLKARIEKMKAKSRREGTTRT
modifications: [35S]methionine label
Take B5: the Kd is 560 nM in assay [2] and 540 nM in assay [1].

B6: Stu2p C611 (domain or fragment)
chain: MSGEEEVDYTTLPLEERLTYKLWKARLEAYKELNQLFRNSVGDISRDDNIQIYWRDPTLFAQYITDSNVVAQEQAIVALNSLIDAFASSSLKNAHNITLISTWTPLLVEKGLTSSRATTKTQSMSCILSLCGLDTSITQSVELVIPFFEKKLPKLIAAAANCVYELMAAFGLTNVNVQTFLPELLKHVPQLAGHGDRNVRSQTMNLIVEIYKVTGNNSDLLEEILFKKLKPIQVKDLHKLFAKVGDEPSSSKMLFEWEKRELEKKRSQEEEARKRKSILSNDEGEYQIDKDGDTLMGMETDMPPSKQQSGVQIDTFSMLPEETILDKLPKDFQERITSSKWKDRVEALEEFWDSVLSQTKKLKSTSQNYSNLLGIYGHIIQKDANIQAVALAAQSVELICDKLKTPGFSKDYVSLVFTPLLDRTKEKKPSVIEAIRKALLTICKYYDPLASSGRNEDMLKDILEHMKHKTPQIRMECTQLFNASMKEEKDGYSTLQRYLKDEVVPIVIQIVNDTQPAIRTIGFESFAILIKIFGMNTFVKTLEHLDNLKRKKIEETVKTLPNFSIASGSTHSTIETNKQTGPMENKFLLKKSSVLPSKRVASSPLRNDNKS
modifications: [35S]methionine label
As for B6, the fold higher Kd than full length Stu2p in assay [1] was determined as 6 fold.

B7: Stu2p N612 (domain or fragment)
chain: KVNPIGSVASASKPSMVAANNKSRVLLTSKSLATPKNVVANSTDKNEKLIEEYKYRLQKLQNDEMIWTKERQSLLEKMNNTENYKIEMIKENEMLREQLKEAQSKLNEKNIQLRSKEIDVNKLSDRVLSLENELRNMEIELDRNKKRNDTNLQSMGTISSYSIPSSTVSSNYGVKSLSSALPFKEEEDVRRKEDVNYERRSSESIGDLPHRVNSLNIRPYRKNGTGVSSVSDDLDIDFNDSFASEESYKRAAAVTSTLKARIEKMKAKSRREGTTRT
modifications: [35S]methionine label
As for B7, in assay [1], the fold higher Kd than full length Stu2p amounted to 3.5 fold.

A word on the Kd: it is the free concentration of one partner at which half of the binding sites on the other are occupied at equilibrium, for simple one-to-one binding.
